# From patent publication US12319742
# Experiments:
# [1] = molecular target: human TNFRSF25 over-expressed on CHOK1 cells (cDNA sequence NP_683866) (human) (UniProt Q93038); assay: flow cytometry on CHOK1-TNFRSF25+ cells (lower panel), 1 h at 4 C, APC anti-human Fc
# [2] = molecular target: human TNFRSF25 over-expressed on CHOK1 cells (cDNA sequence NP_683866) (human) (UniProt Q93038); assay: flow cytometry competition (upper panel); CHOK1-TNFRSF25+ cells with antibody 30 min at 4 C, then biotinylated human TL1A-Fc at 156 nM, PE-streptavidin
# [3] = molecular target: human TNFRSF25 over-expressed on CHOK1 cells (cDNA sequence NP_683866) (human) (UniProt Q93038); assay: flow cytometry on CHOK1-TNFRSF25+ cells; APC anti-human Fc
binder,measurement,setting,value
"SL-061mut213 (antibody, human IgG1, kappa, V domains shown) VH: QVQLQQSGPGLVKPSQTLSLTCAISGDSVSSYSAAWNWIRQSPSRGLEWLGRTYYRSKWFNDYAVSVKSRITINPDTSKNQFSLQLNSVTPEDTAVYYCARDYYGSESYYNRGYYYYGLDVWGQGTTVTVSS VL: AIQLTQSPSSLSASVGDRVTITCRASPSISSALAWYQQKPGKAPKLLMYDESSQEGSVPSRFSGSGSGTDFTLTISSLQPEDFATYYCQQFNEYPLTFGGGTKVEIKR",EC50 (read off the curve),[1],0.003 nM
"NH24-35 (antibody) (antibody, V domains shown) VH: EVQLVESGGGSVQPGGSLRLSCAASGFTFSSYGMSWIRQAPGKGLEWVSYISSSGGHTYYADSVKGRFTISRDNAKNSLYLQMNSLRAEDTAVYYCARYSGAFDHWGQGTLVTVSS VL: DIVMTQSPSSLSASVGDRVTITCQASQDITNYLSWYQQKPGKAPKLLINDASNLETGVPSRFSGSGSGTDFTFTISSLQPEDIATYYCQQYDTLPITFGQGTRLEIKR",IC50,[2],4 nM
"NH24-162 (antibody, V domains shown) VH: EVQLVESGGGSVQPGGSLRLSCAASGFTFSSYGMSWVRQAPGKGLEWISYISSSGGHTYYADSVKGQFTISRDNAKNSLYLQMNSLRAEDTAVYYCARGSGSFDYWGQGTLVTVSS VL: DIVMTQSPSSLSASVGDRVTITCQASQDISNYLSWYQQKPGKAPKLLISDASNLETGVPSRFSGSGSGTDFTFTISSLQPEDIATYYCQQYDNLPITFGQGTRLEIKR",IC50,[2],49 nM
"NH24-72 (antibody, V domains shown) VH: EVQLVESGGGSVQPGGSLRLSCAASGFTFSSYGMNWIRQAPGKGLEWITYISSSGGHTYYADSVKGRFTISRDNAKNSLYLQMNSLRAEDTAVYYCARGQGPFEYWGQGTLVTVSS VL: DIVMTQSPSSLSASVGDRVTITCQASQDISNYLSWYQQKPGKAPKLLINDASNLETGVPSRFSGSGSGTDFTFTISSLQPEDIATYYCQQYDNLPITFGQGTRLEIKR",IC50,[2],8 nM
"NH46 (whole antibody) (antibody, human IgG1, kappa, V domains shown) VH: QVQLVQSGSEVKKPGASVRVSCKVSGSTVKELSMHWVRQAPGKGLEWMGGYDPEDGESIFAQKFQGRVNMTEDRSTDTAYMELSSLRSEDTAVYYCATDLNWEDAFDVWGQGTMVTVSS VL: QSVLTQPPSVSAAPGQKVTISCSGSGSNIGNYYVAWYQQFPGTAPKLLIYDNNKRPSGIPDRFSGSKSGTSATLGITGLQTGDEADYYCGTWDTSLTAGDIYVFGTGTKVTVLR",IC50,[2],49 nM
same,EC50,[3],0.05 nM
